Laboratory results: the supplement of paper PMC10567573

B1: SLC19A2 (parent)
chain: FHHIPSTCQRVNGIKVQNGGIVTD
B2: C2orf65 (parent)
chain: QLDWDELETNQQHFHALCHSLLVS

Variants of: B1
Assay: protein stability index of a GFP-peptide fusion (GPS, HEK-293T) (PSI 1-6); higher = more stable
Settings: c terminus: a fixed tail appended
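Further: lentivirally expressed fusions sorted by FACS into six bins by GFP to DsRed ratio, PSI derived from sequencing read proportions per bin multiplied by bin number.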

Protein stability index: each site, then its substitutions
N12: T 1.78, C 1.84, K 2.22, A 1.84, S 2.36, Q 2.43, V 1.82, I 1.42, H 1.89, D 2.86, E 2.04, L 2.1, W 1.01, F 1.74, P 2.05, G 2.07, R 2.47, Y 1.78
S6: K 1.86, W 3.58, E 2.22, F 2.69, A 2.17, L 2.36, R 1.9, M 1.92, Q 2.32, T 1.6, G 1.93, I 1.71, P 1.82, N 1.6, V 2.07, C 2.27, H 2.02, Y 2.01, D 2.28
I14: S 2.62, N 2.07, A 2.2, R 2.18, C 1.72, M 2.23, T 2.17, G 2.6, D 1.88, L 2, F 2.32, K 2.19, H 2.31, Q 2.14, P 2.19, E 2.69
G13: P 1.85, Q 2.73, H 1.64, K 2.5, T 2.28, F 1.71, M 2.08, S 1.97, I 1.75, R 2.21, L 1.58, N 2.01, E 2.13, D 2, C 1.89, V 1.73, A 1.77, Y 2.19
I4: F 3.14, V 1.67, L 2.37, D 2.91, E 2.77, G 2.48, H 1.85, T 2, R 2.02, C 1.67, M 2.01, Y 2.67, Q 2.1, K 1.94, P 2.37, A 2.11, N 2.07, S 3.05
P5: T 2.67, V 1.91, Y 2.33, E 2.83, M 2.23, I 1.97, Q 1.89, C 1.86, A 1.97, G 2.12, R 1.58, N 2.11, W 2.91, H 1.79, D 2.71, S 3.55, K 2.61, L 1.86
C8: Y 1.86, V 2.3, K 1.83, R 3.48, Q 1.97, W 1.93, N 2.69, G 2.07, P 1.94, T 2.84, F 1.97, M 2.39, S 2.27, A 2.36, L 2.3, H 2.13, D 2.38, E 2.18, I 1.99
H2: C 2.28, Q 2.83, T 2.4, G 3.01, V 2.35, A 2.73, L 2.21, P 3.26, E 3.65, I 2.04, M 2.47, D 3.31, F 2.03, N 3.73, W 3, Y 1.85, R 2.61, S 3.17, K 2.52
V11: D 2.42, W 1.44, G 2.19, R 3.19, A 2.25, C 1.49, Q 2.48, E 2.08, L 1.59, P 2.54, M 2.26, T 2.04, H 1.83, F 1.81, I 2.43, S 1.93, Y 2.09, N 2.49, K 2.11
H3: N 2.25, W 2.18, V 3.16, I 1.59, P 2.03, K 2.79, E 2.53, G 2.31, T 2.06, A 2.22, F 1.39, M 2.8, L 1.96, Q 1.71, D 3, R 2.53, C 1.92, S 1.33, Y 2.11
T7: S 2.31, Q 1.83, G 1.57, P 1.91, N 2.42, I 1.45, F 3.29, Y 1.91, E 2.32, H 2.3, K 2.23, A 1.39, M 2.03, V 2, R 1.77, C 2.21, L 2.59, D 2.58
R10: L 2.46, N 1.6, H 2.5, V 2.46, D 2.65, K 1.91, A 1.81, S 1.89, E 2.46, Q 1.87, P 1.78, G 2.23, Y 2.07, I 1.98, T 1.99, C 2.36, W 2.97, F 1.7, M 1.67
Q9: L 2.92, R 1.77, E 2.29, F 2.35, A 1.46, P 1.81, D 1.8, S 1.67, I 1.65, N 2.08, K 1.55, V 2.04, T 1.84, H 1.78, M 2.27, C 2.13, G 1.68
F1: S 3.48, Q 3.71, K 2.78, T 3.66, I 3.46, R 3.64, C 3.84, D 4.42, Y 2.5, G 3.78, V 4.14, M 3.33, W 1.85, A 3.95, E 4.27, P 3.84, L 2.81, H 3.53, N 3.25

Variants of: B2
Assay: as above
Settings: c terminus: a fixed tail appended

Protein stability index: each site, then its substitutions
S20: V 2.33, Y 2.05, W 1.9
V23: R 2.01, M 1.99, F 1.69, C 2.09, P 2.95, L 1.92, D 3.38, K 2.45, S 2.63, G 3.26, N 2.75, Q 2.48, Y 2.27, I 1.96, H 2.36, T 2.35, E 2.68, A 2.68, W 1.57
L22: K 2.37, R 2.96, I 2.95, S 2.58, D 3.77, F 2.21, H 2.69, P 3.16, N 2.69, A 3.29, Y 2.44, C 2.58, M 3.01, W 1.64, E 3.38, V 2.34, T 3.08, Q 2.81
L21: F 2.31, N 3.01, G 3.04, W 2.22, V 3.04, D 3.83, I 2.06, K 2.94, Y 2.37, P 2.95, R 3.15, M 2.28, E 3.87, S 3.09, C 1.61, T 2.93, Q 2.91, H 2.87, A 3.23
S24: N 2.25, G 1.78, L 2.73, I 2.99, M 2.02, K 2.27, V 1.56, H 2.33, P 2.5, F 1.7, C 2.18, Q 2.04, D 3.08, E 2.11, W 1.38, T 1.89, Y 2.54, R 2.1, A 2.11
